± gives the uncertainty stated by the source.

49 substances from the supplement of paper PMC12042874 can be followed below.

A short description of this series: amyloid nucleation score (Sup35N fusion, yeast selection) (log enrichment); library NNK1; higher = more nucleation; inactive = no reads after selection. The essentials: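 Nucleation score: DiMSum log enrichment of output over input reads, centred on the mode score of non-aggregating sequences. Only sequences with at least 100 input reads were kept. Reads came from Illumina sequencing of plasmid inserts before and after 7 days of growth at 30°C without adenine and uracil, in psi-negative yeast expressing Sup35N fused to peptides of 20 random codons after 24 hours of induction with 100 μM copper sulfate.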
In the case of WVGQVLGREENCASASSFSE, the amyloid nucleation score is -1.89 ± 2.7.
Next, CLYAIKLCM: 6.82 ± 0.043; LKQTPMLGDMGWGHRCLGKT: -0.262 ± 0.73.
For YFGYRCDYRCNPPLAPLCAN, the amyloid nucleation score turned out to be 0.515 ± 0.43.
Next, DMQIWFLYDCI: “inactive”.
In the case of ILSKVCGFSVARIWCSCISI, the amyloid nucleation score came to 6.65 ± 0.088.
Next, IMSKRTWWLRPRGPTACFQW: 0.208 ± 0.44.
Substance CMRFAPMMHANCHVKARWHR registered an amyloid nucleation score of 0.696 ± 0.6.
In the case of SSILDHLAAFVRRWFVYALL it was -0.591 ± 0.98.
In the case of NRCYMVYKFTV it was -0.01 ± 0.33; in that of LGQLFHGGCD, 0.3 ± 0.43.
NLTANVLKVMSRHCNGFWIF displayed an amyloid nucleation score of 0.29 ± 0.46.
Next, EYNQG: -0.76 ± 1.2; LSTGLKFACATRVSYALVRV: 0.117 ± 0.5.
Next, FCDILQVLVCYGLLKRVLKV: -0.296 ± 0.3; SGVINTAAMIRTDPWRVLDG: 0.765 ± 0.42.
FHHTKSGS: the amyloid nucleation score turned out to be 1.67 ± 0.57.
For LSYMGGIPGVLHVMPDAFTV, the amyloid nucleation score was -0.077 ± 0.7.
Next, FCSLGKFGSRKCF: 1.07 ± 0.61; RYARLMYASACCSSC: -0.404 ± 0.52.
Regarding MRQQGWYTESTFVMCQFTGG, the amyloid nucleation score stood at 2.04 ± 0.088.
In the case of YTRMICGSMMGGVMREMRIM, the amyloid nucleation score was 0.739 ± 0.36.
In the case of GNTWNIMFNICCLQGIECCL, the amyloid nucleation score was 7.349 ± 0.051.
In the case of VNSNGTPCSMGIHMSGSYSP it was 0.226 ± 0.48.
VPGRWHSLCASYTLYA yielded an amyloid nucleation score of 0.469 ± 0.72.
Next, YKASG: 0.794 ± 1.1; THARMKFLWFARF: -0.282 ± 0.83; NNMLILFTCGFYYKVYSPVQ: 3.18 ± 0.17.
For the substance FCYIDMEFSFCLLSAEFISV, the amyloid nucleation score stood at 0.03 ± 0.53.
APVVGTNSTTGEYSLTPSSW registered an amyloid nucleation score of 0.741 ± 0.41.
On to SVMDCSFFVLPLCFGCDQKF, for which the amyloid nucleation score is -0.987 ± 0.46.
KLAIYFILAACSRNVVED yielded an amyloid nucleation score of 0.768 ± 0.36.
Take SLPFTFSLVMMCFFVCVRGL: the amyloid nucleation score was -1.76 ± 1.2.
In turn, SFYYWHPIALVWYGGARYKC displayed an amyloid nucleation score of 1.35 ± 0.43.
In the case of LVMCVFLSASVYVFPTHLSS it was -1.18 ± 1.4; in that of VVASAFSSL, 0.388 ± 0.93.
Next, SKSCFFKQYLTSIIYLHTKK: 0.418 ± 0.32.
As to TCYGQAVFLTDCSGRWDIYE, the amyloid nucleation score came out at 3.34 ± 0.16.
ILHQAILRCVSRYGLS came in with an amyloid nucleation score of -0.012 ± 0.76.
Take SCSGSRMRELAAVYTVIIEY: the amyloid nucleation score was -1.04 ± 1.1.
Take LYYCSFRYMIKTRNLNVTFL: the amyloid nucleation score is 6.4 ± 0.084.
In the case of ASNAWCMYYMLATGAMEISL it was -0.617 ± 0.86; in that of LYESYDMVEKQDRTWSKGSS, 0.281 ± 0.65.
Next, CWASIEVLRRSDYGGFCHSV: 0.826 ± 0.6.
Consider FHASATRTFIVFCIC, for which the amyloid nucleation score is 0.556 ± 0.38.
PRGVFYCLCYLVTCLAEFYE showed an amyloid nucleation score of -0.311 ± 0.36.
Turning to ILIFVNSVYRNVSSR, the amyloid nucleation score was found to be 5.27 ± 0.056.
On to THKFLRTRTYFMSVRSVNYW, for which the amyloid nucleation score was found to be 1.19 ± 0.41.
On to VALLTNWFTGPQPLTMFTRV, for which the amyloid nucleation score is 1.14 ± 0.9.
